Reference: the domain aggregation screens of Martell et al. (2025)

Experiment: soluble fraction after stress (log2 fold change); higher = more stays soluble; pooled small domains, quantitative proteomics
Conditions: stress: pH 4
In short: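 Custom libraries of small protein domains were pooled and exposed to pH 4. High-throughput quantitative proteomics then measured the log2 fold change in the amount of each domain still soluble, with higher values meaning more stayed soluble. This soluble-fraction fold change stands for aggregation propensity.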

| Sequence | soluble fraction (log2) |
| --- | --- |
| HMTMTKELGQRIRAERTARKMTQEELAERADLHPTYIGQVERGEKSLTIASLEKIVEGLGISFSDLFEN | -0.0395 |
| HMNMYTVTGRLVDQDGVPQANALVTIDSSSQQTRTSPQGFYLIKVFGTEPSTIKFLVDGYDPQIVNFTP | -0.278 |
| HMSKSENLYSAARELIPGGVNSPVRAFTGVGGTPLFIEKADGAYLYDVDGKAYIDYVGSWGPMVLGHNHP | -0.279 |
| HMNKITIEEAKSIALKHSNLDESQVSFIRSEYDFDNGIEKYEIEFYYNNNKYEYEINAKTGDIISYDYDI | -0.528 |
| HMLELDRTNLLGVFGSKSNPYALIMLSNGEMLKLSIGDQFLGWRVYAIDQTTVHVQNGKNQEILRIP | -0.772 |
| HMRPRWTEQEVERAKAIKMIYPNAYRLESSDVFVQVWSKEEILLAHVEVDMFPSLRPGQPVELDEIIG | -0.114 |
| HMSAERFDFRIGPELAGKRFDQALAEALPQFSRSRLSTWIKDGRATLNGATMRPKDSVHAGDTVVVNAE | 0.255 |
| HMKGDYWIIDLDKNYQYAIISEPDRQYLWILSRSPNMDTQTLETLKEKIRSKGFDLTYLKQTL | -1.24 |
| HMEEVIEVEGKITAVLPSTMFRAELENGHQVLAHISGKLRKHFIKITVGDIVKMEMSTQDLQKARIV | -0.831 |
| HMSRLLERARDLMAKPGAWLSAEGGAYALRLSPDRRSRISLTLTETEFRALIDQPGLRVRPGGGWSGRA | -0.484 |
| HMDAVQAGKRVLIVDDLIATGGTAKAATDLIEKAGGTVVGFSFVMRLDGLDGLDKLDGKPSSSLIAMP | -0.0677 |
| HMKDESQLVGAEGKAVTPLRPTGVALIGEKRLDVLTEGEFIPRNSDIIVSRVEGNKIIVKLKN | 0.22 |
| HMAKSDLNYLDFKSKLEAGEIAKASVIRNEDTFKVTLQNGEVYNVTSPDYEDFRKELLEAGVDIQVSK | 0.022 |
| HMPVGVPGVVYNTDSLNVRKGAGTNYDIVSKLKRGSVIEVLEQTAVDGTVWGRIAEGWVNMEYVSL | -0.363 |
| HMLILTWNYPYEYPMMMRSFLQEIGISRTFLAHIKSNGELLINGRHEIVLKTLQPGDVLTMVIPPSG | -0.78 |
| HMPTKSDLLQWIKDRASKMGGAFTNSGAYALADAGVDGPRALSSEINKLLTYVNWERSVEADDVIRL | -0.296 |
| HMGANSAYMAMRDRIQQRLLAELSPGVTRSDTAEVRRVVERIFNETTAELGLPLSRLERNDIFDLVLADIL | -1.72 |
| HMTSHSFVITEEVGQRLDRFISDQLDTVSRTMIQKHIRSGAVVVNGKQVKSNYLLVLNDRINIALK | -1.22 |
| HMQDRDKNIEEGRQLVLHEMDRLDLVDEPLHDVARQLNMKAVEDMFAAVGAGDLRLGQIIHQLLKQADTN | -1.11 |
| HMGPDGLFAKFREPETGKDLLITQNVFVEQVLIKGVLTRTLTDAEANTYRAPFVNPEKRFPIYVWPNELP | -0.0131 |
| HMAPTVPEVVRLEEGAARSAIEAAGLSVGSVEFRASSDPAGTVLATRPIAGRKVRPSSAVDLVLSDGRTP | 0.0751 |
| HMDHKSALQELLAPRGLQPSYRLVEEAGPAHARVFTSEVSVDGVARGSGTGTTIKMSEQAAAREALASLG | 0.318 |
| HMERTVEVVDINDVFSQFLRLYSRERAAGLLSVFKRVEHGLSWQGNPVLLERILSNVFENAIKYAA | -0.424 |
| HMDSSLVWVDYLLGSKLTKLNSSNELTGPGASAKTIGAFLGENKQSFDLYIESVHNARDTYSDILTHGT | -0.122 |
| HMDKEVLYVTVNDKKVKLDGKNHIFIDIFNYIDFDIKKPNGSIVLKLNGKNAGYMDEIKDGDKIEIYWDK | -0.277 |

| Sequence | soluble fraction (log2) |
| --- | --- |
| HMIAVLEEGSHFRAVNDVTGKPFGPEMVIKNGQVTAVGKTISTKPKNLLGKKEGTKFVISGKQYVIKDI | -0.103 |
| HMSARRHAVKHLDANQLQTRVARMLSEFGLTAKVSKDPNSNALIIDGAPEAQRIAAQLITTIDKE | 0.063 |
| HMNATQLSNTQKQIRTQLLERLSNNPLTVKQLADRMFVPIDTILKEITALIQEQKIIEDKGGKLQIN | 0.168 |
| HMGEDFPYVAYATDSVRLRSKPSSSGDILAVIRQGDAVLITGSDGNYKIVEYEGRKGYVISAFLSQTP | -0.438 |
| HMAQISDEGLLRGLIVEMFEANPAVVEELLGGRDRKKGFVIGQIMKKTKGMANPALLDQLFYEELEKL | -1.31 |
| HMPTSILEKILNSAAEQFTRYGFKTITMDDIARHAGVSKKTLYQHFETKLDIIVAAVTHFHTMKF | -1.65 |
| HMEGMQATVTQITDEGITVRYVMNGQMVTRTLTSDEVAFVNRGQAVSDLAGAYRVGQTVWIY | -0.179 |
| HMSFESMGLTPRQADVLTLLLQGKSNKDIARRLVLSVETVKDHVQAVLRALGVSSRTQAVLAVGQMTQQ | -0.37 |
| HMKPRISMITLGVKDLNKSIEFYGGGLGFPRKKTEPEIAIFKLNGSWLSLYNRGLLAEDANVS | 0.347 |
| HMPGLSQAEAQSLLIAYLAQQGRTLELIPLGQSGDVWRFSGRESDGTVVSFFMVSRTDGTISEVPVPP | -0.992 |
| HMDRTIGEIGLVTETIDSTLESGRVMVDGLSWKARTSDNTVLEAGTRVQVKEIHGVTLTVEKA | 0.147 |
| HMKADTSPEAQKKIIAAFEPYSVNKDQIEKLIQRRIDSITPAQVIRLRKILASLKDGMSSPEDWFE | 0.076 |
| HMGRYVIQIASFSSKNNAIEAADKLGGFVVQSGRFYRVRTGPFATRGEADAALASARRVGYRDAFIDTS | -0.233 |
| HMGIIYGKNPVLEAISSGTTINKIYAQTSNKEIDSVIKEALKRKIIVVNTDKQKLDKMIDGKNSQGIIASI | 0.36 |
| HMEKLNERLLYLRKNANLTQQQLADKLHISNKTISQWETGRTLPDIVMLVRLAEIYDMKLDELLNQ | 0.074 |
| HMTTRQREALLDYLSRHPDQPLTVREIAAGVEPDGVSLSAVYRNLAELEAAGLIRRESRPGSREAVVQYV | -0.192 |
| HMSTMTGTVDTPGASLNVRTGAWGPIVGQLAHGSKVTIIGSSGDWFKISYNGATRYVHKNYVNTT | -0.0624 |
| HMPQKIVIQKGVVIKKRERSDAWQIYITVKGKKPIRKSANTDNVEKAKQMALTLFAEKNYKVENNLPIQ | -0.0334 |
| HMEHGQWLSEAQGASLAADWLARRRGVLPLNARRHLSGLSDQIARQIEGGLSREAGLYTAHEMMESLDP | -0.217 |
| HMSESKYKMIKNWIKSKILDGTLVPNQKIYSESELMEIFDVSRHTVRLAIGELVSEGYLFKRQGTGTFVTQ | -0.763 |
| HMLKDININVTGLDQISNAKLINNLNLLKMNNLFFLDEKKIKKILNSNNLIEKFFIFKKYPSTLDIKVYKT | 0.22 |
| HMNFTVTDKNAVLYSNDNTKVYESPDINSKLVTTIAKDLPVNVTGITSNGWFRISLEGTYYVPGNGLEQR | -0.251 |
| HMSYKYYSTERPLMPGSFPKPQGNTVLNIENFNDRSYVGKIGREAWGFIEYEKPISPVLLDDYELVAA | ≥ 0.43 |
| HMSNPPLPFLAKTKVSWTGEQDGDLGFLENEVVKVFHVVDELWWQGSLSRNGAEGIFPRDFVEVISAP | -1.27 |
| HMGHLSNENAGRLLDRVLNDKIHAIMLGHLSKENNMPELAHEAVRMEITMGESRYKADDFPIYVA | -0.00322 |

| Sequence | soluble fraction (log2) |
| --- | --- |
| HMRKGDDRLRAQVDEYISKQGNNTFNYKQVAHAINATSPISQRAVALYLAELAFDGDLLETAPGRYKSPSR | 0.191 |
| HMGQDTTIVVRRGESLLGIAARLLPATDFYTTGELAEGIRTASGMENDRLIPGQTLRVPLNSG | 0.0588 |
| HMSTDIPFNIFSQKWNADEIDSIVVENNKIEGKTKDNKKFSTYAPDELLTSLMENHKNPNVIVEFRAP | -0.646 |
| HMKQNSDDGEIRKIIIEILDNNLDNVNKYKSGRTNVLDFFVGQVMKQTRGQANPELTRSILTEELSN | 0.00746 |
| HMATLTPLGRLQLARYHAQERATLAATAERFQVSTTTVRRWVGRYHQVVAAGGRPTTADMQDRPSRP | -0.00504 |
| HMVMSVGENIAYFRKKLGLTQEMLSERIGVTAQAVSKWENGVTNPDISLLPRISEALGIGIGDLFD | -0.218 |
| HMQPEKELAPLIGQRVSVRLHDGDGGYRDLLGELESPDSIRKKNGEIAFFDPAKIAALRVVV | 0.326 |
| HMTVSRRYTENEMETALKAYLATHNFISRRDMQQEFALTIYSARKWLNHFVDVGLIERIGLKNAPIYKL | 0.22 |
| HMQQLTQRELTLLRLLANGYNNRQIAEQLQLAESTVKNNLSALFQKIGVRDRTQAVLFAISQGLVP | -0.462 |
| HMRKIKEVLRLKFETGFSHERIAAAVGVSKGAVTKYVQRAVAAGLGWPLAPERDDAALEALLFPH | 0.0455 |
| HMDSVAKSFLAEIERFLETAGLEPTTLGKQALGDPSFVFDLRKGRSPSTRTIGKLRVWMQQQNALS | -1.24 |
| HMLQARKFTHIQGYEFEAEFLRTNGEFVELQDPQGRKKWFPISNFIQDDKDFIKEQAGNLSS | -0.903 |
| HMSGGNTSAFKGKLNYEYRGNDTIITGSTYPVKELIKKAGGRWDPGSSAWIIKGRHVSDNEIF | -0.317 |
| HMWSQEPEYRPLYNSMDGFDAGQVVEMLQQSRIDYKVEPNSGALLVRSEDLADARLRLASAGISP | -0.959 |
| HMGGPEVLELEDVKVGSPGPDEIKVTNHAIGLNYIDTYHRSGLYPLKLPSGIGLEAAGKVEEIGSNV | -0.511 |
| HMVSLTGEWRPSKDALDILITKGGINPNFIDDAVPEFILYWRDRGDVSNTWDSKFIQHVRRQWQFYTGI | -1.66 |
| HMGIMNFDTWLKSLPGTPTPTIAAKKSGLAAPTLLRHVERGYSTADNVIAIAKAYGVSPIDALVDNGML | -0.201 |
| HMRQEIIEDSRKLLEESLKRYDLTYQEFIDTLKSKNMNVESTLINIIKNQSSLDLVLRNLGLIAP | -0.869 |
| HMKGVSFEEIERAVRTAQNPEADETAQQHAGMVFSRMEGNELFDKLVQSSSTIGKKITGLMDYYL | -0.378 |
| HMKQVEVPRLVGLTLREAQAVLGQVGLRIGLISRAALLASPREQIVEQIPVAGERNIATPYVNLLVNVP | -0.324 |
| HMTMEQAEFLSRQFNLLSQRLNDPSIEWQDIADLRSEYTGEDEHRDTIRKGAKLFYEYLEAGWIKN | -0.867 |
| HMKEPQLGPVRKWSDQTGNFGIEAQFVKREGDNILLKRADQRTISIPLEKLSDADQEHLKQEEQKQAME | -0.312 |
| HMSIDNALLTLIGKTGTAQTVLRPSGKVVIGDEVYDAVTAGEFIDKGSAIVVTRVEATQLYVEASEA | -0.343 |
| HMIENPGQTFERIAGKITRTLRTGPLRIQQLDLLFSESGEQVMDVLRAMAENGEILIKDDTIQWNGHN | -0.387 |
| HMGNFQNIFRKLRTSSNLTQNAIAEKLGISRSTIGMYETGAREPDFETLEKIADYFNVDTDFLLGRTNQTT | -0.0101 |
